Laboratory results reported in publication PMC10609481, “Substrate DNA Promoting Binding of Mycobacterium tuberculosis MtrA by Facilitating Dimerization and Interpretation of Affinity by Minor Groove Width”.
Several values for one entry are separate records, joined by “and”; a condition that tells them apart may be missing. Equal entries are not always repeated.

T1: MtrA (Mycobacterium tuberculosis H37Rv) (UniProt P9WGM7)
T1 sequence: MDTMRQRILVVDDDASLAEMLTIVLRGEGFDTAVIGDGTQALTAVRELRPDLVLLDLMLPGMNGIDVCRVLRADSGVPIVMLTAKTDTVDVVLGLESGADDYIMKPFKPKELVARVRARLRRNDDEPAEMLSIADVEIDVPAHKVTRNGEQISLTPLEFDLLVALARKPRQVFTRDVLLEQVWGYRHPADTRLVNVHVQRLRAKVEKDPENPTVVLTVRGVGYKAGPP

T2: MtrA (Mycobacterium tuberculosis H37Rv, UniProt P9WGM7 1-228)
T2 sequence: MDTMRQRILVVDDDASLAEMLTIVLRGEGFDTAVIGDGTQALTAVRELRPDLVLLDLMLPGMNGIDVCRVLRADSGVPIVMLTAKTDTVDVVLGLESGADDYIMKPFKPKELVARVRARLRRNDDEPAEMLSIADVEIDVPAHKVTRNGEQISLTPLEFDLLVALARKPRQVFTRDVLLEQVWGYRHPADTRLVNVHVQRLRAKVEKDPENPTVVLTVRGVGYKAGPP

B1: Rv2524c fragment (dsDNA)
DNA 1: GTTTTGTTATCAAATCGTTATGCTGG
DNA 2: CCAGCATAACGATTTGATAACAAAAC
B2: No-Binding fragment (dsDNA)
DNA 1: ACAGCGGGACGTTTTCGCGCTGCATC
DNA 2: GATGCAGCGCGAAAACGTCCCGCTGT
B3: Rv3859c fragment (dsDNA)
DNA 1: GTTACGTGATCGAATTGTGGTCCAGG
DNA 2: CCTGGACCACAATTCGATCACGTAAC
B4: artificial highest-contribution sequence (dsDNA)
DNA 1: GTTTTGTTATCGTTTTGTGATATGGA
DNA 2: TCCATATCACAAAACGATAACAAAAC
B5: Rv0309 fragment (dsDNA)
DNA 1: GCTTTGTCACCGCACAGTGACCCAGC
DNA 2: GCTGGGTCACTGTGCGGTGACAAAGC

Each molecule was assayed against T1, MtrA (Mycobacterium tuberculosis H37Rv) (assay: BLI). Conditions: not given.
Work on Rv0320 fragment yielded a Kd of 0.142 µM.
With Rv0469 fragment the Kd was 119 µM.
In the case of Rv1918c fragment, the Kd is reported as 0.079 µM.
With Rv3246c fragment the Kd was 9880 µM.
Molecule Rv3849 fragment has a Kd of 9650 µM.

What follows are molecules tested against T2, MtrA (assay: BLI). Conditions: protein: recombinant; tags: His6 (pET28a, BamHI/XhoI; N-terminal, inferred from stop codon in reverse primer); chain copies: 2; blunt.
In the case of B1, the Kd is reported as 0.0462 µM and 0.0625 µM.
B2: no binding.
In the case of B3, the Kd is reported as 13.3 µM and 11.1 µM.
Work on B4 yielded a Kd of 0.248 µM.
In the case of B5, the Kd is reported as 178 µM.
